The record followed here is US20180319880A1 (Eli Lilly, published 2018).

Substitutions are numbered along the chain they refer to.

As usually defined, the Kd is the equilibrium constant for the complex coming apart. For orientation: koff means the first-order rate constant of dissociation. As usually defined, the kon is the rate constant with which the complex forms.

Assay [1] deals with T1, human IL-12 (human, UniProt P29459 23-219; P29460 23-328).
T1 sequence (looked up) 1: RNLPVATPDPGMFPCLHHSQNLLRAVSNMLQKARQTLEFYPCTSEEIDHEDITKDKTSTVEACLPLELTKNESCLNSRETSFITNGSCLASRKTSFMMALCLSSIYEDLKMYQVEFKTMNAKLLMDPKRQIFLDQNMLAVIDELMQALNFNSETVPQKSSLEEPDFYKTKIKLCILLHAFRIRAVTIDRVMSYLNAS
T1 sequence (looked up) 2: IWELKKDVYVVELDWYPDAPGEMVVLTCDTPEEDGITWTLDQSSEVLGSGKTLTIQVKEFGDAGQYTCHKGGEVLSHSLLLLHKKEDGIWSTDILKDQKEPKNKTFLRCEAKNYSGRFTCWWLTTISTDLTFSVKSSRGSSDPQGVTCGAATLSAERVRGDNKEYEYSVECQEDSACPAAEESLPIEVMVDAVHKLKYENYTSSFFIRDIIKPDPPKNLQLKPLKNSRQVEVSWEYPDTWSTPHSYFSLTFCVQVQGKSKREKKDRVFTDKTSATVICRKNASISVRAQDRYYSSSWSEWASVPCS
Description: SPR (BIAcore 2000), antibody captured on Protein A. In general terms: In SPR one partner is held on a chip, and binding of the other changes the refractive index at the surface.

Assay [2] deals with T2, human IL-27 (human, UniProt Q8NEV9 29-243; Q14213 21-229).
T2 sequence (looked up) 1: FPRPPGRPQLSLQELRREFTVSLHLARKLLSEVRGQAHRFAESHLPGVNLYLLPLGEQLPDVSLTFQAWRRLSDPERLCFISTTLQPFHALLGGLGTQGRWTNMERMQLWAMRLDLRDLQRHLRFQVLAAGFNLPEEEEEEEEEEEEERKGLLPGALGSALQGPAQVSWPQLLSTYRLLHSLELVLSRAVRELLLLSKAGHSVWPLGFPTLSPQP
T2 sequence (looked up) 2: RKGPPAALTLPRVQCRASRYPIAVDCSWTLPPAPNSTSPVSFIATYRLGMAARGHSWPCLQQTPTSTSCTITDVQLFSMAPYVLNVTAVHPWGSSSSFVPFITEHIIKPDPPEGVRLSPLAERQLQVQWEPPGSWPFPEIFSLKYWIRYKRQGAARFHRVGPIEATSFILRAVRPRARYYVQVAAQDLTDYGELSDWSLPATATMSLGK
Description: SPR (BIAcore 2000), antibody captured on Protein A.

Assay [3] deals with T3, human IL-35 (human, UniProt P29459 23-219; Q14213 21-229).
T3 sequence (looked up) 1: T1 sequence (looked up) 1
T3 sequence (looked up) 2: T2 sequence (looked up) 2
Description: SPR (BIAcore 2000), antibody captured on Protein A.

For assay [4], the target named is T4, human CGRP (human/cynomolgus monkey CGRP) (human, not fully specified).
T4 construct: also called human Calcitonin Gene Related Peptide; human CGRP peptide (Bachem H-1470)
T4 peptide: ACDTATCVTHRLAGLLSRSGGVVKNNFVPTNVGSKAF
As to the kind of experiment: SPR (BIAcore 3000), antibody captured on Protein A, after CGRP injections, 25 C.

For assay [5], the target named is T5, rabbit IL-23 (rabbit, UniProt G1SSM0 20-191).
T5 construct: not shown: The rabbit p40 subunit (IL-12B) of the heterodimer; Any tag or linker of the reagent is also unstated
T5 sequence (p19): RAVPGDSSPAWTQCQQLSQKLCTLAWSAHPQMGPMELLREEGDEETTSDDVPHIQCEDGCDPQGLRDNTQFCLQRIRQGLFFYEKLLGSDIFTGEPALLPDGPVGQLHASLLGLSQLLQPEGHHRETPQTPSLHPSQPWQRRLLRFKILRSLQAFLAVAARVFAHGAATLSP
Description: SPR (Biacore T200), antibody captured on Protein A, IL-23 as analyte, 37 C, n=1. How it is done:
Affinity and kinetics of Bispecific Antibody 1 to human, cynomolgus monkey, mouse, rat, and rabbit IL-23 are measured using a Biacore T200 instrument (BIAcore® AB, Upsala, Sweden). Briefly, a protein-A coupled CM5 chip is generated using standard amine-coupling protocols. Bispecific Antibody 1 is diluted to 1 μg/mL in running buffer, and approximately 100 RU is captured to the chip surface. A concentration series of each ligand is injected over all flow cells at 100 μL/minute for 180 seconds followed by a 900 second dissociation phase followed by chip regeneration. Data is analyzed in Biacore T200 Evaluation Software Version 1.0 by flow-cell 1 reference subtraction along with 0 nM blank subtraction. Human, cynomolgus monkey, and rabbit IL-23 data are fit globally using a “1:1 (Langmuir) Binding” binding model to determine the on-rate (kₒₙ) and off-rate (koff) for each ligand. The affinity (KD) is calculated from the binding kinetics according to the relationship KD=koff/kₒₙ. Mouse IL-23 binding data is fit using a “Steady State Affinity” binding model to determine affinity (KD). Stoichiometry of binding is calculated according to the relationship: Stoichiometry of binding is calculated according to the relationship: Stoichiometry=[RUₘₐₓ/RU_{Bispecific Antibody 1}]/[MWantigen/MW_{Bispecific Antibody 1}] where MWantigen is the molecular weight of human IL-23 and MW_{Bispecific Antibody 1} is 150 kDa.

The target of assay [6] is T6, mouse/rat CGRP (mouse/rat, UniProt P01256 83-119 (rat entry)).
T6 construct: also used as the target of the rat dermal blood flow assay (endogenous rat CGRP)
T6 peptide (looked up): T4 peptide with A1S, D3N, N25D, K35E
Description: SPR (Biacore T100 or T200), antibody captured on Protein A, CGRP as analyte, 37 C, n=1. How it is done: (§1) Affinity and kinetics of Bispecific Antibody 1 to human/cynomolgus monkey, mouse/rat, and rabbit CGRP are measured using a Biacore T100 or T200 instrument (BIAcore® AB, Upsala, Sweden). Briefly, a protein-A coupled CM5 chip is generated using standard amine-coupling protocols. […] A concentration series of each ligand is injected over all flow cells at 70-100 μL/minute for 180 seconds followed by a 1500-1800 second dissociation phase followed by chip regeneration.
(§2) Data is analyzed by flow-cell 1 reference subtraction along with 0 nM blank subtraction. The on-rate (kₒₙ) and off-rate (koff) for each ligand are fit globally using a “1:1 (Langmuir) Binding” binding model. The affinity (KD) is calculated from the binding kinetics according to the relationship KD=koff/kₒₙ. Stoichiometry of binding is calculated according to the relationship: Stoichiometry=[RUₘₐₓ/RU_{Bispecific Antibody 1}]/[MWantigen/MW_{Bispecific Antibody 1}] where MWantigen is the molecular weight of human CGRP and MW_{Bispecific Antibody 1} is 150 kDa.

In assay [7] the target is rabbit CGRP (rabbit). The description is as above. As to the method: as §1, §2
Assay [8] deals with T4, human CGRP (human/cynomolgus monkey …). Description: SPR (Biacore T100 or T200), antibody captured on Protein A, CGRP as analyte, 37 C, n=3. As to the method: as §1, §2
For assay [9], the target named is T7, mouse IL-23 (mouse, UniProt Q9EQ14 22-196; P43432 23-335).
T7 sequence (looked up) 1: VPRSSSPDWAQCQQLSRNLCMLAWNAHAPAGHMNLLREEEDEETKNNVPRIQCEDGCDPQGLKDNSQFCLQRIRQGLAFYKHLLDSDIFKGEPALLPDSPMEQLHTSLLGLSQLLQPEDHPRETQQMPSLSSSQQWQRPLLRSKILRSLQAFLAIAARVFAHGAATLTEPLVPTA
T7 sequence (looked up) 2: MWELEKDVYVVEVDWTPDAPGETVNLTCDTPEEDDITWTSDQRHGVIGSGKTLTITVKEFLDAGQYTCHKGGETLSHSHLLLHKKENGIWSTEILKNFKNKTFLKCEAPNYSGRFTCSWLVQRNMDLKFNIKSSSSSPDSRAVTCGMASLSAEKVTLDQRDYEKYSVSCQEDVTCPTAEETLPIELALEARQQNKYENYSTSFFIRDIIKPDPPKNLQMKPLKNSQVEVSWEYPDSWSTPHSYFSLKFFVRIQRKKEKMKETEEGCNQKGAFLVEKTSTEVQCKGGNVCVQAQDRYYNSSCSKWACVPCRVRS
As to the kind of experiment: SPR (Biacore T200), antibody captured on Protein A, steady-state affinity model, 37 C, n=2. How it is done:
Affinity and kinetics of Bispecific Antibody 1 to human, cynomolgus monkey, mouse, rat, and rabbit IL-23 are measured using a Biacore T200 instrument (BIAcore® AB, Upsala, Sweden). Briefly, a protein-A coupled CM5 chip is generated using standard amine-coupling protocols. Bispecific Antibody 1 is diluted to 1 μg/mL in running buffer, and approximately 100 RU is captured to the chip surface. A concentration series of each ligand is injected over all flow cells at 100 μL/minute for 180 seconds followed by a 900 second dissociation phase followed by chip regeneration. Data is analyzed in Biacore T200 Evaluation Software Version 1.0 by flow-cell 1 reference subtraction along with 0 nM blank subtraction. Human, cynomolgus monkey, and rabbit IL-23 data are fit globally using a “1:1 (Langmuir) Binding” binding model to determine the on-rate (kₒₙ) and off-rate (koff) for each ligand. The affinity (KD) is calculated from the binding kinetics according to the relationship KD=koff/kₒₙ. […] Stoichiometry of binding is calculated according to the relationship: Stoichiometry of binding is calculated according to the relationship: Stoichiometry=[RUₘₐₓ/RU_{Bispecific Antibody 1}]/[MWantigen/MW_{Bispecific Antibody 1}] where MWantigen is the molecular weight of human IL-23 and MW_{Bispecific Antibody 1} is 150 kDa. […]

B1: Bispecific Antibody 1 (bispecific antibody, human IgG1, kappa, lambda, L234A L235A)
heavy 1: QVQLVQSGAEVKKPGSSVKVSCKASGYTFGNYWMQWVRYAPGQGLEWMGAIYEGTGKTVYIQKFADRVTITADKSTSTAYMELSSLRSEDTAVYYCARLSDYVSGFGYWGRGTTVTVSSASTKGPSVFPLAPCSKSTSGGTAALGCLVKDYFPEPVTVSWNSGALTSGVHTFPAVLQSSGLYSLSSVVTVPSSSLGTQTYICNVNHKPSNTKVDKKVEPDSGDKTHTCPPCPAPEAAGGPSVFLFPPKPKDTLMISRTPEVTCVVVDVSHEDPEVKFNWYVDGVEVHNAKTKPREEQYNSTYRVVSVLTVLHQDWLNGKEYKCKVSNKALPAPIEKTISKAKGQPREPQVYTLPPSRGDMTKNQVQLTCLVKGFYPSDIAVEWESNGQPENNYKTTPPVLDSDGSFFLASKLTVDKSRWQQGNVFSCSVMHEALHNHYTQKSLSLSPG
light 1: DIQMTQSPSSLSASVGDRVTITCRASKDISKYLNWYQRKPGDAPKLLIYYTSGYHSGVPSRFSGSGSGTDFTLTISSLQPEDFATYYCQQGDALPPTFGGGTKVEIKRTVAAPSVFIFPPSKEQLKSGTASVVCLLNNFYPREAKVQWKVDNALQSGNSQESVTEQDSKDSTYSLSSTLTLSKADYEKHKVYACEVTHQGLSSPVTKSFNRGEC
heavy 2: QVQLVQSGAEVKKPGSSVKVSCKASGYPFTRYVMHWVRKAPGQGLEWMGYINPYNDGVNYNEEFKGRVTITADESTSTAYMELSSLRSEDTAVYYCARNWDTGLWGQGTTVTVSSASTKGPSVFPLAPSSKSTSGGTAALGCLVKDYFPEPVTVSWNSGALTSGVATGPAVLQSSGLYSLSSVVTVPSSSLGTQTYICNVNHKPSNTKVDKKVEPKSCDKTHTCPPCPAPEAAGGPSVFLFPPKPKDTLMISRTPEVTCVVVDVSHEDPEVKFNWYVDGVEVHNAKTKPREEQYNSTYRVVSVLTVLHQDWLNGKEYKCKVSNKALPAPIEKTISKAKGQPREPQVSTLPPSREEMTKNQVSLMCLVYGFYPSDIAVEWESNGQPENNYKTTPPVLDSDGSFFLYSVLTVDKSRWQQGNVFSCSVMHEALHNHYTQKSLSLSPG
light 2: RIQMTQSPSSLSASVGDRVTITCKASDHIGKFLTWYQDKPGKAPKLLIYGATSKLTGVPSRFSGSGSGTDFTLTISSLQPEDFATYYCQQYWSTPFTFGGGTKVEIKGQPKAAPSVTLFPPSSEELQANKATLVCYISDFYPGAVTVAWKADSSPVKAGVETTTPSKQSNNKYAAWSYLSLTPEQWKSHRSYSCQVTHEGSTVEKTVAPTEC
notes: Heterodimeric IgG1 with one arm for CGRP and one arm for the p19 subunit of IL-23; also called exemplified bispecific antibody; anti-CGRP/anti-IL-23 IgG bispecific antibody
B1: the binding result in assay [1], in assay [2] and in assay [3] was “no binding (tested: 400 nM)” in each case. In assay [4], the “stoichiometry of human CGRP-to-Bispecific Antibody 1” value was determined as 0.8. Moreover, the Kd is 1020 nM in [5]; 0.169 nM in [6]; 0.021 nM in assay [7]; 0.0071 nM in assay [8]; greater than 100 nM in assay [9]. Also, the Stoichiometry in assay [5] came out at 1; in [6], 0.8; in assay [7], 0.9; in assay [8], 1. In addition, the koff came out at 0.018 s⁻¹ in assay [5], 0.00097 s⁻¹ in assay [6], 0.00047 s⁻¹ in assay [7] and 7.2e-05 s⁻¹ in [8]. The kon in assay [5] is 17000 M⁻¹ s⁻¹; in assay [6], 5.7e+06 M⁻¹ s⁻¹; in assay [7] it was 2.3e+07 M⁻¹ s⁻¹; in [8], 1.5e+07 M⁻¹ s⁻¹.
